In the RNAGym collection of RNA variant scans (doi:10.7554/elife.80360):

B1: CPEB3 Ribozyme (parent)
chain: GGGGGCCACAGCAGAAGCGUUCACGUCGCGGCCCCUGUCAGAUUCUGGUGAAUCUGCGAAUUCUGCUGU

Variants of: B1
Assay: self-cleavage, relative activity (ratio to wild type); higher = more cleavage; co-transcriptional

| Variant | self-cleavage |
| --- | --- |
| G4U A23U | 0.86 |
| G4U A40C | 0.199 |
| G4U A42C | 0.179 |
| G4U A59G | 0.442 |
| G4U A60G | 0.302 |
| G4U C6U | 0.31 |
| G4U C7A | 0.0496 |
| G4U C7G | 0.0264 |
| G4U C9U | 0.954 |
| G4U C18A | 0.0913 |
| G4U C22G | 0.0672 |
| G4U C24U | 0.193 |
| G4U C27G | 0.0677 |
| G4U C29G | 0.1 |
| G4U C29U | 0.192 |
| G4U C33G | 1 |
| G4U C39G | 0.558 |
| G4U C39U | 0.376 |
| G4U C57A | 0.17 |
| G4U C63A | 0.306 |
| G4U C63U | 0.739 |
| G4U C66G | 0.431 |
| G4U G5A | 0.0691 |
| G4U G5C | 0.105 |

| Variant | self-cleavage |
| --- | --- |
| G4U G14A | 0.257 |
| G4U G17C | 0.112 |
| G4U G17U | 0.072 |
| G4U G28A | 0.0947 |
| G4U G28U | 0.0847 |
| G4U G30A | 0.142 |
| G4U G31A | 0.0947 |
| G4U G37U | 0.128 |
| G4U G41A | 0.265 |
| G4U G41U | 0.251 |
| G4U G48C | 0.752 |
| G4U G48U | 0.813 |
| G4U G50C | 0.764 |
| G4U G50U | 0.817 |
| G4U G56A | 0.466 |
| G4U G58U | 0.798 |
| G4U G65C | 0.411 |
| G4U G65U | 0.254 |
| G4U G68A | 0.983 |
| G4U G68C | 0.97 |
| G4U U21G | 0.054 |
| G4U U26A | 0.282 |
| G4U U26C | 0.641 |
| G4U U38G | 0.114 |

| Variant | self-cleavage |
| --- | --- |
| G4U U43C | 0.462 |
| G4U U44A | 0.532 |
| G4U U49A | 0.821 |
| G4U U49C | 0.758 |
| G4U U61A | 0.154 |
| G4U U61G | 0.439 |
| G4U U62A | 0.315 |
| G4U U67G | 0.921 |
| G4U U69C | 1.02 |
| G4U U69G | 0.941 |
| G5A | 0.933 |
| G5A A13G | 0.88 |
| G5A A13U | 0.642 |
| G5A A15G | 0.846 |
| G5A A16C | 0.134 |
| G5A A23C | 0.766 |
| G5A A23G | 0.806 |
| G5A A40U | 0.719 |
| G5A A42C | 0.505 |
| G5A A59U | 0.415 |
| G5A C6G | 0.0495 |
| G5A C9G | 0.982 |
| G5A C9U | 1.02 |
| G5A C12U | 0.931 |

| Variant | self-cleavage |
| --- | --- |
| G5A C18A | 0.12 |
| G5A C22A | 0.134 |
| G5A C29G | 0.175 |
| G5A C32G | 0.847 |
| G5A C32U | 0.992 |
| G5A C33U | 0.568 |
| G5A C34A | 0.203 |
| G5A C34U | 0.599 |
| G5A C39U | 0.653 |
| G5A C63G | 0.448 |
| G5A C66U | 0.88 |
| G5A G11A | 0.785 |
| G5A G17A | 0.166 |
| G5A G17C | 0.0889 |
| G5A G19U | 0.197 |
| G5A G30A | 0.156 |
| G5A G30C | 0.156 |
| G5A G37A | 0.143 |
| G5A G47U | 0.932 |
| G5A G48C | 0.956 |
| G5A G48U | 0.939 |
| G5A G50U | 0.906 |
| G5A G65U | 0.513 |
| G5A U20A | 0.0737 |

| Variant | self-cleavage |
| --- | --- |
| G5A U21G | 0.161 |
| G5A U36C | 0.831 |
| G5A U36G | 0.521 |
| G5A U46A | 0.907 |
| G5A U46G | 0.925 |
| G5A U49C | 0.969 |
| G5A U49G | 0.781 |
| G5A U53A | 0.74 |
| G5A U53C | 0.584 |
| G5A U55G | 0.433 |
| G5A U62A | 0.492 |
| G5A U62G | 0.447 |
| G5A U67A | 0.953 |
| G5C | 0.24 |
| G5C A10U | 0.341 |
| G5C A13C | 0.17 |
| G5C A13G | 0.273 |
| G5C A13U | 0.172 |
| G5C A15C | 0.113 |
| G5C A15G | 0.3 |
| G5C A15U | 0.15 |
| G5C A16C | 0.0946 |
| G5C A16G | 0.205 |
| G5C A16U | 0.169 |

| Variant | self-cleavage |
| --- | --- |
| G5C A40U | 0.134 |
| G5C A42G | 0.282 |
| G5C A59C | 0.135 |
| G5C A59U | 0.14 |
| G5C A60C | 0.171 |
| G5C A60G | 0.215 |
| G5C A60U | 0.164 |
| G5C C6A | 0.0948 |
| G5C C6U | 0.158 |
| G5C C7U | 0.156 |
| G5C C12G | 0.141 |
| G5C C12U | 0.256 |
| G5C C22A | 0.107 |
| G5C C24A | 0.112 |
| G5C C27A | 0.109 |
| G5C C27G | 0.0907 |
| G5C C29G | 0.113 |
| G5C C32A | 0.805 |
| G5C C32U | 0.703 |
| G5C C33U | 0.468 |
| G5C C35G | 0.121 |
| G5C C35U | 0.162 |
| G5C C45A | 0.283 |
| G5C C54A | 0.123 |

| Variant | self-cleavage |
| --- | --- |
| G5C C57U | 0.0922 |
| G5C C66A | 0.202 |
| G5C C66G | 0.186 |
| G5C G11A | 0.164 |
| G5C G11C | 0.147 |
| G5C G14A | 0.0874 |
| G5C G14C | 0.146 |
| G5C G17U | 0.118 |
| G5C G19C | 0.0995 |
| G5C G25A | 0.0822 |
| G5C G28A | 0.134 |
| G5C G31A | 0.2 |
| G5C G31C | 0.0712 |
| G5C G48C | 0.245 |
| G5C G48U | 0.194 |
| G5C G50U | 0.243 |
| G5C G56C | 0.166 |
| G5C G56U | 0.131 |
| G5C G58A | 0.198 |
| G5C G58C | 0.293 |
| G5C U20A | 0.0824 |
| G5C U20C | 0.0972 |
| G5C U26C | 0.109 |
